Assay results taken from the supplement of paper PMC9112550, “Optimization of the antimicrobial peptide Bac7 by deep mutational scanning” (BMC Biology, 2022).

System: Escherichia coli TOP10
Assay: shrunken log2 fold change of peptide-encoding DNA abundance (4.5 h post-induction vs induction); higher = less antimicrobial activity (less host growth inhibition)
Conditions: time post-induction: 4.5 h; library: site-saturation at positions 5, 18, 19, 20
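Also: peptides expressed intracellularly from a pBAD plasmid library in pooled LB shake-flask culture, induced with 0.3% L-arabinose, DNA abundance read by NGS, three biological replicates, DESeq2 with apeglm shrinkage.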

| Sequence | shrunken log2 fold change |
| --- | --- |
| RRIRVRPPRLPRPRPRPEMMPRP | 0.0629 |
| RRIRVRPPRLPRPRPRPENDPRP | -0.0879 |
| RRIRVRPPRLPRPRPRPENGPRP | -0.158 |
| RRIRVRPPRLPRPRPRPEPLPRP | 0.204 |
| RRIRVRPPRLPRPRPRPEPQPRP | 0.363 |
| RRIRVRPPRLPRPRPRPEQRPRP | 0.0562 |
| RRIRVRPPRLPRPRPRPEQTPRP | -0.0332 |
| RRIRVRPPRLPRPRPRPESAPRP | 0.522 |
| RRIRVRPPRLPRPRPRPETFPRP | -0.0527 |
| RRIRVRPPRLPRPRPRPEVDPRP | 0.296 |
| RRIRVRPPRLPRPRPRPEVVPRP | -0.0305 |
| RRIRVRPPRLPRPRPRPEVWPRP | 0.405 |
| RRIRVRPPRLPRPRPRPEWGPRP | 2.29 |
| RRIRVRPPRLPRPRPRPEWWPRP | 0.191 |
| RRIRVRPPRLPRPRPRPEYRPRP | -0.115 |
| RRIRVRPPRLPRPRPRPFAWPRP | 0.384 |
| RRIRVRPPRLPRPRPRPFCMPRP | -0.537 |
| RRIRVRPPRLPRPRPRPFCRPRP | -0.215 |
| RRIRVRPPRLPRPRPRPFEHPRP | -0.00133 |
| RRIRVRPPRLPRPRPRPFELPRP | 0.0193 |
| RRIRVRPPRLPRPRPRPFEPPRP | 0.126 |
| RRIRVRPPRLPRPRPRPFFLPRP | -0.294 |
| RRIRVRPPRLPRPRPRPFHDPRP | -0.0143 |
| RRIRVRPPRLPRPRPRPFHKPRP | -0.385 |
| RRIRVRPPRLPRPRPRPFIEPRP | -0.468 |

| Sequence | shrunken log2 fold change |
| --- | --- |
| RRIRVRPPRLPRPRPRPFIRPRP | -0.148 |
| RRIRVRPPRLPRPRPRPFKLPRP | -0.277 |
| RRIRVRPPRLPRPRPRPFPTPRP | 0.756 |
| RRIRVRPPRLPRPRPRPFSCPRP | -0.323 |
| RRIRVRPPRLPRPRPRPFSSPRP | -0.068 |
| RRIRVRPPRLPRPRPRPFTWPRP | -0.327 |
| RRIRVRPPRLPRPRPRPFVTPRP | -0.206 |
| RRIRVRPPRLPRPRPRPFVWPRP | -0.03 |
| RRIRVRPPRLPRPRPRPFWSPRP | 0.0887 |
| RRIRVRPPRLPRPRPRPFWWPRP | 0.343 |
| RRIRVRPPRLPRPRPRPFYQPRP | -0.537 |
| RRIRVRPPRLPRPRPRPFYWPRP | -0.103 |
| RRIRVRPPRLPRPRPRPGACPRP | 0.0218 |
| RRIRVRPPRLPRPRPRPGADPRP | 0.163 |
| RRIRVRPPRLPRPRPRPGAHPRP | 0.0262 |
| RRIRVRPPRLPRPRPRPGCCPRP | 0.385 |
| RRIRVRPPRLPRPRPRPGCMPRP | -0.076 |
| RRIRVRPPRLPRPRPRPGCWPRP | 0.594 |
| RRIRVRPPRLPRPRPRPGDVPRP | -0.262 |
| RRIRVRPPRLPRPRPRPGENPRP | -0.0226 |
| RRIRVRPPRLPRPRPRPGEYPRP | 0.00369 |
| RRIRVRPPRLPRPRPRPGFCPRP | 0.352 |
| RRIRVRPPRLPRPRPRPGFGPRP | 0.408 |
| RRIRVRPPRLPRPRPRPGFMPRP | -0.152 |
| RRIRVRPPRLPRPRPRPGIRPRP | -0.0476 |

| Sequence | shrunken log2 fold change |
| --- | --- |
| RRIRVRPPRLPRPRPRPGLDPRP | 0.0777 |
| RRIRVRPPRLPRPRPRPGMHPRP | -0.00805 |
| RRIRVRPPRLPRPRPRPGNHPRP | -0.245 |
| RRIRVRPPRLPRPRPRPGRRPRP | 0.236 |
| RRIRVRPPRLPRPRPRPGTLPRP | -0.174 |
| RRIRVRPPRLPRPRPRPGYFPRP | -0.366 |
| RRIRVRPPRLPRPRPRPHDYPRP | -0.264 |
| RRIRVRPPRLPRPRPRPHEVPRP | -0.0408 |
| RRIRVRPPRLPRPRPRPHEWPRP | -0.276 |
| RRIRVRPPRLPRPRPRPHGRPRP | -0.0651 |
| RRIRVRPPRLPRPRPRPHLCPRP | -0.137 |
| RRIRVRPPRLPRPRPRPHNRPRP | -0.241 |
| RRIRVRPPRLPRPRPRPHPPPRP | 0.361 |
| RRIRVRPPRLPRPRPRPHQMPRP | -0.0715 |
| RRIRVRPPRLPRPRPRPHQRPRP | -0.124 |
| RRIRVRPPRLPRPRPRPHQYPRP | -0.278 |
| RRIRVRPPRLPRPRPRPHRIPRP | -0.0697 |
| RRIRVRPPRLPRPRPRPHSSPRP | -0.531 |
| RRIRVRPPRLPRPRPRPHSWPRP | 0.0662 |
| RRIRVRPPRLPRPRPRPHTVPRP | -0.448 |
| RRIRVRPPRLPRPRPRPHVHPRP | -0.45 |
| RRIRVRPPRLPRPRPRPHVTPRP | -0.304 |
| RRIRVRPPRLPRPRPRPHWDPRP | -0.473 |
| RRIRVRPPRLPRPRPRPHWIPRP | -0.512 |
| RRIRVRPPRLPRPRPRPHWYPRP | -0.463 |
